Laboratory results reported in US20240360228A1 (BIOLEGEND, published 2024).
Residue numbers refer to the chain shown, from its start.

B1: AB4 (antibody, V domains shown)
VH: QVQLKESGPGLVKPSETLSLTCTVSGFSLTGYHVSWVRQPPGKGLEWMGVIWGDGRTTYNSALKSRLSISRDTSKSQVFLKMSSLKTEDTATYYCARGGDSGFAYWGQGTLVTVSS
VL: DIQMTQSPASLSASLEEIVTITCQASQDIGNWLSWYQQKPGKSPQLLIYGATSLADGVPSRFSGSRSGTQFSLKISRLQVEDIGIYYCLQAYIVPLTFGSGTKLESK
notes: Hybridoma monoclonal; also called antibody 4; clone 4
B2: AB5 (antibody, V domains shown)
VH: QVQLKESGPGLVQPSQTLSLTCTVSGFSLTSYHVSWVRQPPGKGLEWMGVIWTGGSTTYNSLLKSRLSISRDISKSQVFLKMNSLQTEDTATYYCARGGTVVKGGFAYWGQGTLVTVSS
VL: B1 VL with W32R, F71Y, I93S, V94T, S106I
notes: Hybridoma monoclonal; also called antibody 5; clone 5
B3: AB2 (antibody, V domains shown)
VH: B1 VH with G31S, V34I, R56S, T57K, S83R
VL: B1 VL with A51T, S53N, F71Y, I93S, S106I
notes: Hybridoma monoclonal; also called antibody 2; clone 2
B4: AB13 (antibody, V domains shown)
VH: EVQLVETGGGLVQPKGSLKLSCAASGFTFNAYAMNWVRQAPGKGLEWVARIRTKSNNYATYYADSVKDRFTISRDDSQTMLYLQMNNLKTEDTAMYYCVRDRATVTTGRAMDYWGQGTSVTVSS
VL: DIVMTQAAPSLPVTPGESVSISCRSSKSLLHSNGNTYLYWFLQRAGQSPQLLIYRMSNLASGVPDRFSGSGSGTAFTLRISRVEAEDVGVYYCMQHLEYPFTFGSGTKLEIK
notes: Hybridoma monoclonal; also called antibody 13; clone 13
B5: AB8 (antibody, V domains shown)
VH: AVQLVESGGGLVQPKESLKISCAASGFIFSNAAMYWVRQAPGKGLQWVARIRTKPKNYATYYIDSVKGRFTISRDDSKSMVYLQMDNLKTEDTAMYYCNTMGLTRAYYFDYWGQGVMVTVSS
VL: DIQMTQSPSFLSASVGDRVTINCKASQNINRYLNWYQQKLGEAPKLLIYNANSLQTGIPSRFSGSGSGTDFTLTIRSLQPEDVATYFCLQHNSWPWTFGGGTKLELK
notes: Hybridoma monoclonal; also called antibody 8; clone 8

molecular target: T1, human chemokine (C-C motif) receptor 8 (CCR8) (human, UniProt P51685 1-355); experiment: flow cytometry blocking, PBMC CCR8+ CD4+ cells; competitor PE-AB6 (its MFI is read)
T1 construct: On human peripheral blood lymphocytes / PBMC (native) or on human CCR8 GFP-transfected Ba/F3 cells; also called hCCR8; human CCR8
Experimental: (§1) For blocking studies, 100 μL of the cell suspension were incubated with 10 μg purified isotype control, AB1, AB2, AB3, AB4, AB5, AB8, AB9, AB10, AB11, AB12, AB13, AB14, AB15, and Commercial ABI antibodies, or isotype control, as blocking agents.
(§2) After incubation with the blocking agent, the cells were incubated with 0.25 μg of the indicated PE-conjugated antibody plus anti-human CD4 APC or anti-human CD3 for another 15 minutes in the dark and then washed 2 times with Cell Staining Buffer, and acquired in a FACSCanto II flow cytometer (BD Biosciences); the data was analyzed using FCS Express (De Novo Software); MFI correspond to the CCR8+ CD4+ lymphocytes or CCR8+ CD3+ lymphocytes.
(§3) Percentage original MFI was calculated by dividing the MFI of samples blocked with AB1, AB2, AB3, AB4, AB5, AB6, AB7, AB8, AB9, AB10, AB11, AB12, AB13, AB14, AB15, and Commercial ABI antibodies, by the MFI of samples blocked with the corresponding isotype control. This value was subtracted from 100 to get a blocking percentage. The formula is shown below: […]

T1 sequence (P51685 whole entry): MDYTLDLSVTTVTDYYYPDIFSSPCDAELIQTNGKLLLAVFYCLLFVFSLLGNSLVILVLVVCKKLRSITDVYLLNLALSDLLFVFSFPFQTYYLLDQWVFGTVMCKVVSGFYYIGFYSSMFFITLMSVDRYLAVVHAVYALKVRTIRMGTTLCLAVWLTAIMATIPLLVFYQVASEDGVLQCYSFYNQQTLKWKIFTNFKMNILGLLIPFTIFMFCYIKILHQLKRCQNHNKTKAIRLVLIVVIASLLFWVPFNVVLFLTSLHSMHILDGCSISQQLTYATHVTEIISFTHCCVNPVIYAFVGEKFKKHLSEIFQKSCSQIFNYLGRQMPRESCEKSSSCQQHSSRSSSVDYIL

Binder | % Blocking [%] | MFI
B1 | 47.3 | 413
B2 | 35.7 | 504
B3 | 45.9 | 424
B4 | -30.7 | 1020
B5 | -20.4 | 944

molecular target: T1, human chemokine (C-C motif) receptor 8 …; experiment: flow cytometry blocking, PBMC CCR8+ CD4+ cells; competitor PE-AB4 (its MFI is read)
Experimental: as §1, §2, §3

Binder | % Blocking [%] | MFI
B1 | -61.4 | 1100
B2 | -6.8 | 729
B3 | 16.2 | 572
B4 | -42.8 | 975
B5 | -40.9 | 962

molecular target: T1, human chemokine (C-C motif) receptor 8 …; experiment: flow cytometry blocking, PBMC CCR8+ CD4+ cells; competitor PE-AB3 (its MFI is read)
Experimental: as §1, §2, §3

Binder | % Blocking [%] | MFI
B1 | 48.2 | 359
B2 | 47.3 | 366
B3 | 42.4 | 399
B4 | -39.7 | 970
B5 | -43.3 | 994

molecular target: T1, human chemokine (C-C motif) receptor 8 …; experiment: flow cytometry blocking, PBMC CCR8+ CD4+ cells; competitor PE-ABII (its MFI is read)
Experimental: as §1, §2, §3

Binder | % Blocking [%] | MFI
B1 | -7.57 | 1190
B2 | -8.53 | 1200
B3 | 0.77 | 1100
B4 | 12.2 | 972
B5 | 27 | 808

molecular target: T1, human chemokine (C-C motif) receptor 8 …; experiment: flow cytometry blocking, PBMC CCR8+ CD4+ cells; competitor PE-AB13 (its MFI is read)
Experimental: as §1, §2, §3

Binder | % Blocking [%] | MFI
B1 | -3.67 | 971
B2 | -5.77 | 990
B3 | 8.25 | 859
B4 | 27.4 | 680
B5 | 33.4 | 623

molecular target: T1, human chemokine (C-C motif) receptor 8 …; experiment: flow cytometry blocking, PBMC CCR8+ CD4+ cells; competitor PE-AB5 (its MFI is read)
Experimental: as §1, §2, §3

Binder | % Blocking [%] | MFI
B1 | 45.1 | 411
B2 | 44.9 | 413
B3 | 36.7 | 475
B4 | -35.7 | 1020
B5 | -27.2 | 953

molecular target: T1, human chemokine (C-C motif) receptor 8 …; experiment: flow cytometry blocking, PBMC CCR8+ CD4+ cells; competitor PE-AB10 (its MFI is read)
Experimental: as §1, §2, §3

Binder | % Blocking [%] | MFI
B1 | -12.2 | 1130
B2 | -7.11 | 1080
B3 | -8.07 | 1090
B4 | -36.6 | 1380
B5 | -81.3 | 1830

molecular target: T1, human chemokine (C-C motif) receptor 8 …; experiment: flow cytometry blocking, PBMC CCR8+ CD4+ cells; competitor PE-AB15 (its MFI is read)
Experimental: as §1, §2, §3

Binder | % Blocking [%] | MFI
B1 | -7.83 | 855
B2 | -6.62 | 845
B3 | -7.83 | 855
B4 | -15.9 | 919
B5 | -56.6 | 1240

molecular target: T1, human chemokine (C-C motif) receptor 8 …; experiment: flow cytometry blocking, PBMC CCR8+ CD4+ cells; competitor PE-AB11 (its MFI is read)
Experimental: as §1, §2, §3

Binder | % Blocking [%] | MFI
B1 | -13.3 | 1020
B2 | -11.2 | 1000
B3 | -7.68 | 971
B4 | 37.7 | 562
B5 | 40.4 | 537

molecular target: T1, human chemokine (C-C motif) receptor 8 …; experiment: cell-based or functional assay

Binder | % hCCR8-Ba/F3 - THP-1 complexes [%]
B1 | 0.43
B2 | 1.51
B3 | 0.48
B4 | 1.16
B5 | 1.78

molecular target: T1, human chemokine (C-C motif) receptor 8 …; experiment: flow cytometry blocking, PBMC CCR8+ CD4+ cells; competitor PE-AB1 (its MFI is read)
Experimental: as §1, §2, §3

Binder | % Blocking [%] | MFI
B1 | 100 | 0
B2 | 39.7 | 395
B3 | 13.5 | 567
B4 | -41.5 | 927
B5 | -49.5 | 980

molecular target: T1, human chemokine (C-C motif) receptor 8 …; experiment: flow cytometry blocking, PBMC CCR8+ CD4+ cells; competitor PE-AB12 (its MFI is read)
Experimental: as §1, §2, §3

Binder | % Blocking [%] | MFI
B1 | -4.04 | 1020
B2 | -17.2 | 1140
B3 | -9.94 | 1070
B4 | -0.1 | 977
B5 | 20.8 | 773

molecular target: T1, human chemokine (C-C motif) receptor 8 …; experiment: flow cytometry blocking, PBMC CCR8+ CD4+ cells; competitor PE-AB2 (its MFI is read)
Experimental: as §1, §2, §3

Binder | % Blocking [%] | MFI
B1 | 45.8 | 363
B2 | 47.1 | 355
B3 | 26.7 | 491
B4 | -54.3 | 1030
B5 | -42.4 | 953

molecular target: T1, human chemokine (C-C motif) receptor 8 …; experiment: flow cytometry blocking, PBMC CCR8+ CD4+ cells; competitor PE-AB14 (its MFI is read)
Experimental: as §1, §2, §3

Binder | % Blocking [%] | MFI
B1 | 0.97 | 878
B2 | -4.39 | 925
B3 | 2.39 | 865
B4 | -413 | 4550
B5 | 6.78 | 826
